Positions count from the first letter of the chain named.
Columns and labels:
PDK1 Tyr126 mutant = target: T1, PDK1 Tyr126 mutant (Homo sapiens, UniProt O15530, Y126A); assay: Biacore binding of PIFtide (data of Komander et al. 2005); settings: applicant's estimate from the published biacore data
T1 sequence (O15530 1-556 Y126A): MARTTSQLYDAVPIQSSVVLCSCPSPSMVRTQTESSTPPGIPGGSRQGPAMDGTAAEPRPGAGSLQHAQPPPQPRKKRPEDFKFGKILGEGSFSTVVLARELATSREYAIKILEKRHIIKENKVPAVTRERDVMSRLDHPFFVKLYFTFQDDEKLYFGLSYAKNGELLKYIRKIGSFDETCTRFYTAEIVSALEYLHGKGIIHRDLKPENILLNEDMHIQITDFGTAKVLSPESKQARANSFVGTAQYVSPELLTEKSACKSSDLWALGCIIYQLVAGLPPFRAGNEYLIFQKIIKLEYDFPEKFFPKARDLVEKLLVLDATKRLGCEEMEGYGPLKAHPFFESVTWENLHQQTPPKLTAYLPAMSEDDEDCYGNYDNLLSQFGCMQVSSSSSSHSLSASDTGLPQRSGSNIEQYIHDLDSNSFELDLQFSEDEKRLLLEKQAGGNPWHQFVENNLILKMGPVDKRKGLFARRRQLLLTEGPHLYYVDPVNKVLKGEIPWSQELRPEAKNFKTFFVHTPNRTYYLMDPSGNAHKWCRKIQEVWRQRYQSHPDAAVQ

PDK1[Thr226Trp] = target: T2, PDK1[Thr226Trp] (Homo sapiens, UniProt O15530, T226W); assay: PDK1 protein kinase activity test with T308tide substrate, Thr226Trp mutant; format: biochemical; settings: PDK1 CD 50-359, T308tide as substrate
T2 construct: The catalytic domain (CD) of PDK1 50-359 and its mutants Phe224Trp and Thr226Trp were expressed in insect cells and purified; made in house; host or cells: insect cells
T2 sequence (O15530 50-359 T226W): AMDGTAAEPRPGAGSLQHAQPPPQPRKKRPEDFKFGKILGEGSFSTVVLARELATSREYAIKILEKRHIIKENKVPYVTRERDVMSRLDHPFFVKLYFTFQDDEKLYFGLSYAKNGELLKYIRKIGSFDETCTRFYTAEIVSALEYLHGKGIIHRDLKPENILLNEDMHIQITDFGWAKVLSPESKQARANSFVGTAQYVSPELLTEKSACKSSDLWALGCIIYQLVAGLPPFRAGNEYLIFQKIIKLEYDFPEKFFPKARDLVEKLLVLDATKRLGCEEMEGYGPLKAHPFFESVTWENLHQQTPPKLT
Experimental: Protein kinase activity tests: PDK1 activity tests were performed essentially as previously described (Biondi, R. M. et al., Embo. J. 20:4380-4390 (2001); Balendran, A. et al., J. Biol. Chem. 275:20806-20813 (2000); Biondi, R. M. et al., Embo. J. 19:979-988 (2000)) using T308tide as a substrate for PDK1. In brief, PDK1 activity assay was performed at room temperature (22° C.) in a 20 μl mix containing 50 mM Tris pH 7.5, 0.05 mg/ml BSA, 0.1% β-mercaptoethanol, 10 mM MgCl2, 100 μM [γ^32P]ATP (5-50 cpm/pmol), 0.003% Brij, 150 ng PDK1, and T308tide (from 0.1 to 1 mM). When appropriate, the PDK1 activity assay was performed in a 96 well format and 4 μl aliquots spotted with on p81 phosphocellulose papers (Whatmann) using ep motion 5070 (Eppendorf), washed in 0.01% phosphoric acid, dried, and then exposed and analysed using PhosphoImager technology (Typhoon, GE Healthcare). Activity measurements were performed in duplicates with less than 10% difference between pairs. Experiments were repeated at least twice. PDK1 specific activity at 22° C. was approximately 0.25 U/mg when the substrate concentration was 0.1 mM T308tide. […]

PDK1 CD wt = target: T3, PDK1 CD wt (Homo sapiens, UniProt O15530); assay: Surface plasmon resonance (BiaCore) on biotin-P-HM-S6K chip; format: binding; settings: protein pre-incubated with PIFtide
T3 construct: PDK1 CD (50-359), wt (0.35 μM), PDK1 [Phe224Trp] or PDK1 [Thr226Trp] were injected onto the system; GST (N); made in house; host or cells: insect cells
T3 sequence (O15530 50-359): T2 sequence (O15530 50-359 T226W) with W177T
Experimental: (§1) Surface Plasmon resonance (BiaCore) and alpha-screen interaction and displacement assays: Binding of GST-PDK1 to a P-HM-polypeptide derived from S6K1 shown in FIG. 6 was analysed by surface plasmon resonance on a BiaCore 3000 system using a streptavidin-coated Sensor chip (SA) and biotin-P-HM-polypeptide, as previously described (Biondi, R. M. et al., Embo. J. 20:4380-4390 (2001). The interaction of His-PDK1 with biotin-PIFtide and the displacement by compounds shown in FIG. 3 was performed using the alpha-screen Ni-Chelate kit (Perkin Elmer) on an Envision 2104 multilabel system (Perkin Elmer).
(§2) BiaCore analysis was performed as described previously (Biondi, R. M. et al., Embo. J. 19:979-988 (2000)). […] Since both mutants were performed on the same construct of PDK1, their mass should be very similar and therefore should also produce 600RU when all biotin-(P)HM-S6K polypeptides on the same chip are bound to the mutant PDK1 proteins. Unfortunately, when mutant PDK1 Phe224Trp and PDK1 Thr226Trp were analysed, the injection of the mutants at concentrations higher than 1.3 μM prompted unspecific effects, therefore making difficult the evaluation. […]

PDK1[Phe224Trp] = target: T4, PDK1[Phe224Trp] (Homo sapiens, UniProt O15530, F224W); assay: Surface plasmon resonance (BiaCore) on biotin-P-HM-S6K chip, Phe224Trp mutant; format: binding; settings: protein pre-incubated with PIFtide
T4 construct: The catalytic domain (CD) of PDK1 50-359 and its mutants Phe224Trp and Thr226Trp were expressed in insect cells and purified; made in house; host or cells: insect cells
T4 sequence (O15530 50-359 F224W): T2 sequence (O15530 50-359 T226W) with F175W, W177T
Experimental: as §1, §2

## REPRILSEEEQEMFRDFDYIADWC [PIFtide, polypeptide derived from the C-terminal 24 amino acids of the PDK1 substrate PRK2]
PDK1 Tyr126 mutant
  decreased affinity for PIFtide of the Tyr126 mutant: over 30 fold
PDK1[Thr226Trp]
  activation of PDK1[Thr226Trp]: not activated
PDK1 CD wt
  displacement by PIFtide of PDK1 binding to biotin-P-HM-S6K: displaced
PDK1[Phe224Trp]
  displacement by PIFtide of PDK1[Phe224Trp] binding to the chip: displaced

Reference: US20120003668A1, “HIGH RESOLUTION COMPLEX STRUCTURE AND ALLOSTERIC EFFECTS OF LOW MOLECULAR WEIGHT ACTIVATORS ON THE PROTEIN KINASE PDK1” (UNIVERSITAET DES SAARLANDES, priority 2008, published 2012)
